B1: p4MdLOX1a-2-M6 (dsDNA)
DNA 1: AATTACGCAGGGATTACATCTATGTCATCTTAAAGCCAGCTAACTTTCGGGATAA
DNA 2: TTATCCCGAAAGTTAGCTGGCTTTAAGATGACATAGATGTAATCCCTGCGTAATT
B2: p4MdLOX1a-2 (dsDNA)
DNA 1: AATTACGCAGGGATTACATCTATGTCATCTTAAAGCCAGCTAACTTTCGGGATAAACGATTTTGTAC
DNA 2: GTACAAAATCGTTTATCCCGAAAGTTAGCTGGCTTTAAGATGACATAGATGTAATCCCTGCGTAATT
B3: Mutant-M1 (dsDNA)
DNA 1: GATTACATCTATGTCATCTTAAAGCCAGCTAACTTTCGGGATAAATTACCTTATAC
DNA 2: GTATAAGGTAATTTATCCCGAAAGTTAGCTGGCTTTAAGATGACATAGATGTAATC

The target in this series is T1, MdASG1-GST (Malus domestica (apple; library from …, UniProt A0A498KLW2 21-457).
T1 sequence: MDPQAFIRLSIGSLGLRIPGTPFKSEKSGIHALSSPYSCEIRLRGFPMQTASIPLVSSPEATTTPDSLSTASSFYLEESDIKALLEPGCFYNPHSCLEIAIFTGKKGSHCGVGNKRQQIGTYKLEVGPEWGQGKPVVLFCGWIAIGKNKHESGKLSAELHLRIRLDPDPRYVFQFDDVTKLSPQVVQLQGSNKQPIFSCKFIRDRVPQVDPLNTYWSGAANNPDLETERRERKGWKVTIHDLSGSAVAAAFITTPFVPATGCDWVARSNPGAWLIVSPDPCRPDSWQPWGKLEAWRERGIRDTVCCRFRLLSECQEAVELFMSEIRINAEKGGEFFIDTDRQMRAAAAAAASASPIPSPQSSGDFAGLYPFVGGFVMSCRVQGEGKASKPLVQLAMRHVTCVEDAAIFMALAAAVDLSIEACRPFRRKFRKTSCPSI
Description: EMSA; LightShift Chemiluminescent EMSA kit binding buffer (composition, salt and pH not stated), 24 °C, 15 min. Conditions: protein: recombinant; tags: GST (pGEX-4T, N-terminal); label: biotin; blunt. On the technique in general: In EMSA bound probe runs differently from free probe, usually more slowly.
In the case of B1, the binding result is listed as “no binding”.

As for B2, the binding result was “binds”.

Regarding B3, the binding result was “no binding”.
